In US20200237923A1:

Target: TNFR1 on L929 cells (UniProt P25118)
Test: cell-based or functional assay

Chain of UniProt P25118 (P25118 30-454 limits assumed): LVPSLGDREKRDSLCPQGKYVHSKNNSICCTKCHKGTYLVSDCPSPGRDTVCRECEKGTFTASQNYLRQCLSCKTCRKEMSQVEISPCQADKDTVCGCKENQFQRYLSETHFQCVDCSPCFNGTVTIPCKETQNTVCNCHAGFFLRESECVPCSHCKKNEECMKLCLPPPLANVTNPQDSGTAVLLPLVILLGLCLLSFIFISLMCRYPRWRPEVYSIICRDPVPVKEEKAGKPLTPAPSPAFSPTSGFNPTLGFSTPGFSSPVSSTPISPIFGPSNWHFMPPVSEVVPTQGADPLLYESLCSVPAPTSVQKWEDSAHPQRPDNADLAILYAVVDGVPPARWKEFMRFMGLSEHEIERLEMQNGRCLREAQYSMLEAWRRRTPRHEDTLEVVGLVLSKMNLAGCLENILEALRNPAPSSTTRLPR

Point of comparison: “PRINT PEG20K scTNF-α (N-terminally PEGylated with PEG-20000) (ligand)”, EC50 of cytotoxic activity against L929 cells 0.00062 ng/mL. Against it:
- PRINT PEG5K scTNF-α (N-terminally mono-PEGylated with PEG-5000) (ligand) — within 1.5-fold, 0.00058 ng/mL
- citraconylated scTNF-α (lysine side chains globally blocked with citraconic anhydride) (ligand) — 12-fold higher, 0.0076 ng/mL
- randomly PEGylated scTNF-α (direct conjugation with PEG NHS ester) (ligand) — 7.4-fold higher, 0.0046 ng/mL
- unmodified single-chain TNF-α (scTNF-α), His tag cleaved (ligand) — 1.8-fold lower, 0.00035 ng/mL

Work on “randomly PEGylated scTNF-α (direct conjugation with PEG NHS ester) (ligand)” yielded a loss of activity against unmodified scTNF-α (L929 cytotoxicity) of 10 fold.
